Reference: patent publication US20090208440

How the values were obtained:
[1] = target: human TNF-alpha
[2] = target: proteins from human blood serum
[3] = target: peptide with the desired target sequence of TNF-alpha
[4] = target: T1, substrate A
T1 chain: LLWLGRVVGGPV

[5] = target: T2, substrate B
T2 chain: KKWLGRVPGGPV

Chain of human TNF-alpha (chain, as listed by the source): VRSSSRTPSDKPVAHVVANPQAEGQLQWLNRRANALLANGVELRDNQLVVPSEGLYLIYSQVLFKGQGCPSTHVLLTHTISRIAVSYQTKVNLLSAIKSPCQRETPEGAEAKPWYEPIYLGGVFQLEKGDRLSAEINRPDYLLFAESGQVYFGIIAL

B1: variant x (protein)
chain: IVGGYNCEENSVPYQVSLNSGYHFCGGSLINEQWVVSAGHCYAAFNGKSRIQVRLGEHNIGVLEGNEQFINAAKIIRHPQYDWKTLNNDIMLIKLSSRAVINARVSTISLPTAPPATGTKCLISGWGNRKDFWTASSGADFPDELQCLDAPVLSQTKCEASYPGKITSNMFCVGFLEGGKDSCQGDSGGPVVRNGQLQGVVSWGDGCAQKNKPGVYTKVYNYVKWIKNTIAANS
In the case of B1, the “remaining intact protein as a function of time (proteolytic digestion)” value [1] is reported as “the variants as well as human trypsin I digest human TNF-alpha” and the “remaining intact protein as a function of time (proteolytic digestion)” value [2] is reported as “only trypsin shows activity on serum protein”.

B2: variant a (protein)
chain: IVGGYNCEENSVPYQVSLNSGYHFCGGSLINEQWVVSAGHCYRPWDPSKSRIQVRLGEHNIEVLEGNEQFINAAKIIRHPQYDRKTLNNDIMLIKLSSRAVINARVSTISLPTAPPATGTKCLISGWGNVHPTSTASSGADYPDELQCLDAPVLSQAKCEASYPGKITSNMFCVGFLEGGKDSCQGDSGGPVVCNGQLQGVVSWGDGCAQKNKPGVYTKVYNYVKWIKNTIAANS
B2 was tested, and the k with comp./k without comp. [3] was 0.13.

B3: variant f (protein)
chain: IVGGYNCEENSVPYQVSLNSGYHFCGGSLINEQWVVSAGHCYAAFNGDKSRIQVRLGEHNIEVLEGNEQFINAAKIIRHPQYDRKTLNNDIMLIKLSSRAVINARVSTISLPTAPPATGTKCLISGWGNRKDFWTASSGADYPDELQCLDAPVLSQAKCEASYPGKITSNMFCVGFLEGGKDSCQGDSGGPVVCNGQLQGVVSWGDGCAQKNKPGVYTKVYNYVKWIKNTIAANS
In the case of B3, the k with comp./k without comp. [3] is reported as 0.487.

B4: Variant 3 (protein)
chain: IVGGYNCEENSVPYQVSLNSGYHFCGGSLINEQWVVSAGHCYAATNGDKSRIQVRLGEHNIEVLEGNEQFINAAKIIRHPQYDRKTLNNDIMLIKLSSRAVINARVSTISLPTAPPATGTKCLISGWGNRKDFWTASSGADYPDELQCLDAPVLSQAKCEASYPGKITSNMFCVGFLEGGKDSCQGDSGGPVVCNGQLQGVVSWGDGCAQKNKPGVYTKVYNYVKWIKNTIAANS
With B4 the “rate constants of proteolytic digestion (proportional to kcat/KM), relative to human trypsin I” value (“rate constants … relative to human trypsin I” below) [4] was “serves as a negative control with similar activities as the human trypsin I” and the “rate constants … relative to human trypsin I” value [5] was “serves as a negative control with similar activities as the human trypsin I”.

B5: Variant 2 (protein)
chain: IVGGYNCEENSVPYQVSLNSGYHFCGGSLINEQWVVSAGHCYNGRDLEKSRIQVRLGEHNIEVLEGNEQFINAAKIIRHPQYDRKTLNNDIMLIKLSSRAVINARVSTISLPTAPPATGTKCLISGWGNVRGTWTASSGADYPDELQCLDAPVLSQAKCEASYPGKITSNMFCVGFLEGGKDSCQGDSGGPVVCNGQLQGVVSWGDGCAQKNKPGVYTKVYNYVKWIKNTIAANS
For B5, the “rate constants … relative to human trypsin I” value [5] was “the specific activity of variants 1 and 2 is shifted (SEQ ID NOs: 2 and 3, respectively) towards substrate B”.

B6: variant e (protein)
chain: IVGGYNCEENSVPYQVSLNSGYHFCGGSLINEQWVVSAGHCYVNIMAAKSRIQVRLGEHNIEVLEGNEQFINAAKIIRHPQYDRKTLNNDIMLIKLSSRAVINARVSTISLPTAPPATGTKCLISGWGNTTARKTASSGADYPDELQCLDAPVLSQAKCEASYPGKITSNMFCVGFLEGGKDSCQGDSGGPVVCNGQLQGVVSWGDGCAQKNKPGVYTKVYNYVKWIKNTIAANS
For B6, the k with comp./k without comp. [3] was 0.374.

B7: variant d (protein)
chain: IVGGYNCEENSVPYQVSLNSGYHFCGGSLINEQWVVSAGHCYKAVVGTKSRIQVRLGEHNIEVLEGNEQFINAAKIIRHPQYDRKTLNNDIMLIKLSSRAVINARVSTISLPTAPPATGTKCLISGWGNRTPISTASSGADYPDELQCLDAPVLSQAKCEASYPGKITSNMFCVGFLEGGKDSCQGDSGGPVVCNGQLQGVVSWGDGCAQKNKPGVYTKVYNYVKWIKNTIAANS
B7 showed a k with comp./k without comp. [3] of 0.31.

B8: variant c (protein)
chain: IVGGYNCEENSVPYQVSLNSGYHFCGGSLINEQWVVSAGHCYEIANREKSRIQVRLGEHNIEVLEGNEQFINAAKIIRHPQYDRKTLNNDIMLIKLSSRAVINARVSTISLPTAPPATGTKCLISGWGNRGARTTASSGADYPDELQCLDAPVLSQAKCEASYPGKITSNMFCVGFLEGGKDSCQGDSGGPVVCNGQLQGVVSWGDGCAQKNKPGVYTKVYNYVKWIKNTIAANS
Work on B8 yielded a k with comp./k without comp. [3] of 0.235.

B9: Variant 1 (protein)
chain: IVGGYNCEENSVPYQVSLNSGYHFCGGSLINEQWVVSAGHCYDAVGRDKSRIQVRLGEHNIEVLEGNEQFINAAKIIRHPQYDRKTLNNDIMLIKLSSRAVINARVSTISLPTAPPATGTKCLISGWGNTITNSTASSGADYPDELQCLDAPVLSQAKCEASYPGKITSNMFCVGFLEGGKDSCQGDSGGPVVCNGQLQGVVSWGDGCAQKNKPGVYTKVYNYVKWIKNTIAANS
For B9, the “rate constants … relative to human trypsin I” value [5] was “the specific activity of variants 1 and 2 is shifted (SEQ ID NOs: 2 and 3, respectively) towards substrate B”.

B10: variant b (protein)
chain: IVGGYNCEENSVPYQVSLNSGYHFCGGSLINEQWVVSAGHCYGFVMFNKSRIQVRLGEHNIEVLEGNEQFINAAKIIRHPQYDRKTLNNDIMLIKLSSRAVINARVSTISLPTAPPATGTKCLISGWGNRSPLTTASSGADYPDELQCLDAPVLSQAKCEASYPGKITSNMFCVGFLEGGKDSCQGDSGGPVVCNGQLQGVVSWGDGCAQKNKPGVYTKVYNYVKWIKNTIAANS
Protein B10 has a k with comp./k without comp. [3] of 0.187.
